According to article PMC8539926:
Each block holds one substance with its values, some of them ahead of it.

Experiments:
[1] = target: CXCR4 (UniProt P61073)
[2] = target: CXCR4 (UniProt P61073); remark: listed apart in the source
[3] = target: CXCR4 (UniProt P61073); remark: listed apart in the source

Chain of UniProt P61073 (P61073 whole entry): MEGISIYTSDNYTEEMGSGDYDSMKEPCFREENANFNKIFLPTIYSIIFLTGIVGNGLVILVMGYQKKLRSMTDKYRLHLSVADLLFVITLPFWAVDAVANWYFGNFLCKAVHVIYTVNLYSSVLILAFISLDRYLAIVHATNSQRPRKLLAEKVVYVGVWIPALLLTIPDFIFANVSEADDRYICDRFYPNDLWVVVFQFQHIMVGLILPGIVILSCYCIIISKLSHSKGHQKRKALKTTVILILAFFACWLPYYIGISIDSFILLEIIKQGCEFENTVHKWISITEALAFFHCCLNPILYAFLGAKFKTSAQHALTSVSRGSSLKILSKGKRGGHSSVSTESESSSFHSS

concentration of the migration maximum, Transwell migration of Jurkat cells (endogenous CXCR4), 2 h, dilution series [1]: 700 nM
Substance: [S4V]-[V49A]-CXCL12-MMPCS-SBP (from UniProt P48061-2 22-89) (ligand)

fold regain of migration potential against compound 4, Jurkat cells (endogenous CXCR4), Transwell assay [2]: 2 fold
Substance: [S4V]-[V49A]-CXCL12-GPLS (from UniProt P48061-2 22-89) (ligand)

Emax of IP accumulation, COS-7 cells with CXCR4-eYFP and chimeric Gαqi protein, normalized to CXCL12 wt [3]: 100% | concentration of the best response, Transwell migration of Jurkat cells (endogenous CXCR4), 2 h, dilution series [1]: 30 nM
Substance: CXCL12 wild type (from UniProt P48061-2 22-89) (ligand)

fold decrease in Jurkat cell migration (endogenous CXCR4) compared with CXCL12 wt, Transwell assay [2]: 11 fold
Substance: [S4V]-[V49A]-CXCL12 (from UniProt P48061-2 22-89) (ligand)
